B1: Alexa labeled mini-protein CD4M48 (peptide)
peptide: XNLHFCQLRCKSLGLLGRCAXTFCACV
modifications: not fully specified; N-terminal thiopropionic acid (TPA) at position 1; (D)Pro at 21; C-terminal amide; Alexa-488 on Lys11
notes: also called CD4M48-F1; Alexa 488-labeled CD4M48
B2: CD4M48_U2 (peptide)
peptide: XNLHFCQLRCKSLGLLGRCAXTXCACV
modifications: not fully specified; N-terminal thiopropionic acid (TPA) at position 1; (D)Pro at 21; para-cyclo-pentylethoxyphenylalanine (U2) at 23; C-terminal amide
B3: CD4M48D50 (peptide)
peptide: XNLHFCQLRCKSLGLLGRCAXTFCACV
modifications: not fully specified; N-terminal thiopropionic acid (TPA) at position 1; (D)Pro at 21; C-terminal amide; Lys11 carries a mercapto group ligated to a maleimido group of a polylysine construct with 50 Å PEGylated linkers
notes: dimer of CD4M48-SH on a polylysine construct
B4: CD4M48_U3 (peptide)
peptide: XNLHFCQLRCKSLGLLGRCAXTXCACV
modifications: not fully specified; N-terminal thiopropionic acid (TPA) at position 1; (D)Pro at 21; Phe(para-[phenyl-ethoxy]) (U3) at 23; C-terminal amide
B5: CD4M48_U1 (peptide)
peptide: XNLHFCQLRCKSLGLLGRCAXTXCACV
modifications: not fully specified; N-terminal thiopropionic acid (TPA) at position 1; (D)Pro at 21; para-cyclo-hexylmethoxyphenylalanine (U1) at 23; C-terminal amide
B6: CD4M48 (peptide)
peptide: XNLHFCQLRCKSLGLLGRCAXTFCACV
modifications: not fully specified; N-terminal thiopropionic acid (TPA) at position 1; (D)Pro at 21; C-terminal amide
notes: optimized mini-protein, Phe at 23; unlabelled monomer; also called B4T
B7: Alexa labeled mini-protein CD4M47 (peptide)
peptide: XNLHFCQLRCKSLGLLGRCAXTXCACV
modifications: not fully specified; N-terminal thiopropionic acid (TPA) at position 1; (D)Pro at 21; biphenylalanine (Bip) at 23; C-terminal amide; Alexa-488 on Lys11
notes: also called CD4M47-F; CD4M47-F1
B8: CD4M47 (peptide)
peptide: XNLHFCQLRCKSLGLLGRCAXTXCACV
modifications: not fully specified; N-terminal thiopropionic acid (TPA) at position 1; (D)Pro at 21; biphenylalanine (Bip) at 23; C-terminal amide
B9: CD4M48T100 (peptide)
peptide: XNLHFCQLRCKSLGLLGRCAXTFCACV
modifications: not fully specified; N-terminal thiopropionic acid (TPA) at position 1; (D)Pro at 21; C-terminal amide; Lys11 carries a mercapto group ligated to a maleimido group of a polylysine construct with 100 Å PEGylated linkers
notes: tetramer of CD4M48-SH on a polylysine construct
B10: CD4M48-heparin (peptide)
peptide: XNLHFCQLRCKSLGLLGRCAXTFCACV
modifications: not fully specified; N-terminal thiopropionic acid (TPA) at position 1; (D)Pro at 21; C-terminal amide; Lys11 carries a hydrazino group ligated to heparin mono-aldehyde
B11: CD4M48D100 (peptide)
peptide: XNLHFCQLRCKSLGLLGRCAXTFCACV
modifications: not fully specified; N-terminal thiopropionic acid (TPA) at position 1; (D)Pro at 21; C-terminal amide; Lys11 carries a mercapto group ligated to a maleimido group of a polylysine construct with 100 Å PEGylated linkers
notes: as for B3
B12: CD4M48T50 (peptide)
peptide: XNLHFCQLRCKSLGLLGRCAXTFCACV
modifications: not fully specified; N-terminal thiopropionic acid (TPA) at position 1; (D)Pro at 21; C-terminal amide; Lys11 carries a mercapto group ligated to a maleimido group of a polylysine construct with 50 Å PEGylated linkers
notes: as for B9

What was measured:
gp120SF162 [1] = biological target: T1, gp120SF162 (HIV-1, UniProt P19550 32-502); assay: fluorescence anisotropy, ratio of the Kd values of Table I (upper end falls on SF162)
T1 construct: domain: gp120

gp120 SF2 [2] = biological target: T2, gp120 SF2 (HIV-1, UniProt P03378 32-509); assay: fluorescence anisotropy, ratio of the Kd values of Table I (lower end falls on SF2)
T2 construct: domain: gp120

gp120 IIIB [3] = biological target: T3, gp120 IIIB (HIV-1); assay: fluorescence anisotropy, Alexa-488-labelled mini-protein (0.5 nM) titrated with gp120 in solution
T3 construct: domain: gp120
Experimental: (§1) Binding assays by fluorescence anisotropy were made in a LJL Analyst (LJL BIOSYSTEMS) microplate reader using 384-wells plates.
(§2) Direct binding assays of fluorescent peptides were performed in triplicates by adding 10 μL of 0.5 nM Alexa-labeled mini-proteins and 10 μL of serial dilutions (two-thirds dilutions in 16 wells, starting at 200 nM) of gp120 SF2, SF162, BaL, IIIB and YU2. Collected data were fitted to the following equation using a non-linear regression program (Prism, GraphPad software Inc.):

gp120 Bal [4] = biological target: T4, gp120 Bal (HIV-1); assay: as above
T4 construct: domain: gp120
Experimental: as §1, §2

[5] = biological target: VI829 pseudovirus envelope (HIV-1); assay: cell-based or functional assay
MJ4 pseudovirus envelope = MJ4 pseudovirus envelope (HIV-1); assay: cell-based or functional assay
[6] = biological target: SF162 pseudovirus envelope (HIV-1, UniProt P19550 32-847); assay: cell-based or functional assay
BaL virus envelope [7] = biological target: BaL virus envelope (HIV-1 groupM); assay: cell-based or functional assay
Mn pseudovirus envelope = Mn pseudovirus envelope (HIV-1, UniProt P05877 32-856); assay: cell-based or functional assay
[8] = biological target: VI1358 pseudovirus envelope (HIV-1); assay: cell-based or functional assay
[9] = biological target: CA10-3 pseudovirus envelope (HIV-1); assay: cell-based or functional assay
gp120SF162 [10] = biological target: T1, gp120SF162; assay: competitive ELISA, IC50 values of Table III (largest ratio falls on gp120SF162)
Experimental: Competition binding assays in ELISA were performed in 96-wells plates (MAXISORB). Briefly, 50 ng per well of antibody D7324 (AALTO BIO REAGENTS) were coated overnight at 4° C.

gp120SF162 [11] = biological target: T1, gp120SF162; assay: fluorescence polarization competition: 6 nM gp120SF162, 1 nM fluorescein-CD4M33
Text: as §1

[12] = biological target: HIV-1 isolate 77 envelope (HIV-1); assay: cell-based or functional assay
BaL virus envelope [13] = biological target: BaL virus envelope (HIV-1 groupM); assay: cell-based or functional assay; remark: listed apart in the source
[14] = biological target: HIV-1 isolate 6393 envelope (HIV-1); assay: cell-based or functional assay
[15] = biological target: HIV-1 isolate 714 envelope (HIV-1); assay: cell-based or functional assay
NL4.3 env = NL4.3 env (HIV-1 groupM); assay: cell-based or functional assay
gp120SF162 [16] = biological target: T1, gp120SF162; assay: fluorescence anisotropy, 0.5 nM CD4M47-F titrated with gp120
gp120 IIIB [17] = biological target: T3, gp120 IIIB; assay: as above
gp120YU2 = biological target: T5, gp120YU2 (HIV-1, UniProt P35961 32-498); assay: as above
T5 construct: domain: gp120

gp120 Bal [18] = biological target: T4, gp120 Bal; assay: as above
gp120 SF2 [19] = biological target: T2, gp120 SF2; assay: as above
gp120 Bal [20] = biological target: T4, gp120 Bal; assay: fluorescence anisotropy, ratio of the Kd values of Table I (lower end falls on Bal)

Row | Binder | EC50, single-cycle HIV-1 pseudovirus infection of GHOST cells (luciferase) [5] | EC50, single-cycle HIV-1 pseudovirus infection of GHOST cells (luciferase) (MJ4 pseudovirus envelope) | EC50, single-cycle HIV-1 pseudovirus infection of GHOST cells (luciferase) [6] | EC50, single-cycle HIV-1 pseudovirus infection of GHOST cells (luciferase) (BaL virus envelope [7]) | EC50, single-cycle HIV-1 pseudovirus infection of GHOST cells (luciferase) (Mn pseudovirus envelope) | EC50, single-cycle HIV-1 pseudovirus infection of GHOST cells (luciferase) [8] | EC50, single-cycle HIV-1 pseudovirus infection of GHOST cells (luciferase) [9] | IC50 (read off the curve) (gp120SF162 [11]) | IC50, acute HIV-1 infection of PM1 cells (p24, day 5) [12] | IC50, HIV-1 infection of PBMC (p24, day 12) (NL4.3 env) | also measured
1 | B1 | – | – | – | – | – | – | – | – | – | – | factor by which the Kd is smaller than that of CD4M33 (gp120SF162 [1]): 6.1 fold; factor by which the Kd is smaller than that of CD4M33 (gp120 SF2 [2]): 1.1 fold; Kd (gp120 IIIB [3]): 0.982 nM; Kd (gp120 Bal [4]): 5.46 nM
2 | B2 | 98 nM | 773 nM | 1.6 nM | 4 nM | 0.08 nM | 42 nM | 3.6 nM | – | – | – | fold enhanced affinity compared to CD4M47 (gp120SF162 [10]): ≤ 3 fold
3 | B3 | – | – | – | – | – | – | – | ~1 nM | – | – | –
4 | B4 | 950 nM | > 3270 nM | 2 nM | 67 nM | 0.13 nM | 364 nM | 29 nM | – | – | – | –
5 | B5 | 11 nM | 87 nM | 0.65 nM | 2 nM | 0.07 nM | 5 nM | 0.3 nM | – | – | – | –
6 | XNLHFCQLRCKSLGLLGKCAGSXCACV (not fully specified; biphenylalanine (Bip) at 23; Alexa-488 on Lys11) [Alexa labeled mini-protein CD4M33] | – | – | – | – | – | – | – | – | – | – | Kd (gp120 IIIB [3]): 3.81 nM; Kd (gp120 Bal [4]): 6.36 nM
7 | B6 | 755 nM | > 3300 nM | 5 nM | 77 nM | 4 nM | 57 nM | 63 nM | ~3 nM | 250 nM | 0.44 nM | IC50, acute HIV-1 infection of PM1 cells (p24, day 5) (BaL virus envelope [13]): 185 nM; IC50, acute HIV-1 infection of PM1 cells (p24, day 5) [14]: 95 nM; IC50, acute HIV-1 infection of PM1 cells (p24, day 5) [15]: 670 nM; IC50, HIV-1 infection of MT-4 cells (MTS viability, day 5) (NL4.3 env): 2.6 nM
8 | B7 | – | – | – | – | – | – | – | – | – | – | fold improvement of affinity over CD4M33 (gp120SF162 [1]): 5.2 to 12.3 fold; EC50 (read off the curve) (gp120SF162 [16]): ~0.3 nM; EC50 (read off the curve) (gp120 IIIB [17]): ~0.9 nM; EC50 (read off the curve) (gp120YU2): ~3 nM; EC50 (read off the curve) (gp120 Bal [18]): ~1 nM; EC50 (read off the curve) (gp120 SF2 [19]): ~0.3 nM; Kd (gp120 IIIB [3]): 0.589 nM; Kd (gp120 Bal [4]): 1.22 nM; fold improvement of affinity over CD4M33 (gp120 Bal [20]): 5.2 to 12.3 fold
9 | B8 | 1200 nM | > 3410 nM | 22 nM | 108 nM | 1 nM | 579 nM | 91 nM | – | – | – | –
10 | B9 | – | – | – | – | – | – | – | ~2 nM | < 4 nM | 1.3 nM | –
11 | B10 | – | – | – | – | – | – | – | – | < 4 nM | < 80 nM | IC50, acute HIV-1 infection of PM1 cells (p24, day 5) (BaL virus envelope [13]): 850 nM; IC50, HIV-1 infection of MT-4 cells (MTS viability, day 5) (NL4.3 env): 112 nM
12 | B11 | – | – | – | – | – | – | – | ~2 nM | 3 nM | < 1.8 nM | –
13 | B12 | – | – | – | – | – | – | – | ~1 nM | – | – | –

From patent US20090285798A1 (COMMISSARIAT A L ENERGIE ATOMIQUE, published 2009)
